Laboratory results from patent US10640556B2, “Anti amphiregulin antibodies, compositions comprising same and uses thereof” (Yeda Research and Development Co. Ltd., priority 2015, dated 2020).

Legend:
EGFR [1] = biological target: T1, EGFR (Homo sapiens, UniProt P00533); experiment: Ligand-induced receptor ubiquitination assay (MCAS, MLS, H358, A549 cells); type: cell-based; design: endogenous in cells; host or cells: MCAS, MLS, H358, A549; settings: 10 minutes
Protocol: (§1) The cells were later washed and lysed, and the associated radioactivity was determined. […] The cells were later washed and lysed in 1 N NaOH. Cell-associated radioactivity was determined. […] Washed immunocomplexes, along with whole extracts, were immunoblotted with the indicated antibodies.
For determination of ligand-induced receptor ubiquitination, cells were extracted in lysis buffer (50 mM HEPES pH 7.5, 150 mM NaCl, 10% glycerol, 1% Triton X-100, 1 mM EDTA, 1 mM EGTA, 10 mM NaF and 30 mM 3-glycerol phosphate) with freshly added 0.2 mM Na3VO4, a protease inhibitor cocktail and 2 mM N-ethylmaleimide (NEM). Twenty μL of protein G agarose beads and 1 μg of antibody were added to 500 μg of protein lysate. After a 2 hour incubation at 4° C., the immunoprecipitates were collected by centrifugation at 14,000 rpm at 4° C. for 1 minute. The supernatant was discarded and the pellet was washed thrice, prior to electrophoresis.

EGFR [2] = biological target: T1, EGFR; experiment: Ligand displacement of radiolabeled EGF on MCAS cells; type: binding; design: endogenous in cells; host or cells: MCAS, MLS, H358, A549; settings: displacement of 125I-EGF (50 ng/mL), 3 hours on ice
Protocol: FIGS. 2A-2F illustrate that AREG is a low affinity ligand that induces limited receptor downregulation, as well as weak ubiquitination and degradation of EGFR. […] The cells were later washed and lysed, and the associated radioactivity was determined. The extent of ligand displacement (mean±range of triplicates) was plotted with respect to binding in the absence of an unlabeled ligand; FIG. 2B is a graph showing results of MCAS ovarian cells incubated in a 12 well plate and starved overnight for serum factors. […] The cells were later washed and lysed in 1 N NaOH. Cell-associated radioactivity was determined. […] Washed immunocomplexes, along with whole extracts, were immunoblotted with the indicated antibodies.
For ligand displacement assays, cells were grown in 12-well plates and serum-starved for 12-15 hours. […] The cells were later washed, lysed and their radioactivity counted.

[3] = tested on: feedback regulatory components of the EGFR signaling pathways; experiment: qPCR of feedback regulators of EGFR signaling in MCF10A cells; type: cell-based, human
Protocol: FIGS. 3A-3F illustrate that amphiregulin acts as a weak inducer of transcription-mediated feedback regulatory loops of EGFR signaling. […] Shown are mRNA profiles representative of two independent biological repeats.
Total RNA was extracted using the PerfectPure RNA Cultured Cell Kit (5-prime) according to the manufacturer's instructions. Total RNA quantity and quality were determined using the NanoDrop® ND-1000 Spectrophotometer. Complementary DNA was synthesized using the High Capacity Reverse Transcription kit (Applied Biosystems, Life Technologies). Primers for the positive (EREG, TGF-alpha and HB-EGF), negative regulators (MIG6/RALT, DUSP1 and DUSP6) and beta2-microglobulin (B2M) were as previously described (Lauriola M et al., (2014) Nat Commun. 5: 5073). The KiCqStart primers from Sigma-Aldrich were used to detect the levels of human AREG (H_AREG_3). Real-time qPCR analysis was performed with SYBR Green (Applied Biosystems) and specific primers on the StepOne Plus Real-Time PCR system (Applied Biosystems). qPCR signals (cT) were normalized to B2M.

EGFR [4] = biological target: T1, EGFR; experiment: Receptor downregulation assay in MCF10A cells; type: cell-based; design: endogenous in cells; settings: AREG 1 ng/mL or 100 ng/mL
Protocol: FIGS. 2G-2H illustrate that AREG is a low affinity ligand able to induce only limited receptor downregulation in normal epithelial cells. FIG. 2G is a graph illustrating results of the immortalized human mammary cell line MCF10A used for ligand displacement assays. […] The cells were later washed and lysed, and the associated radioactivity was determined. The extent of ligand displacement (mean±range of triplicates) is depicted; and FIG. 2H is a graph illustrating results of MCF10A cells grown in 12 well plates and starved overnight for serum factors. […] The cells were later washed, lysed in 1N NaOH and their radioactivity was determined. Averages of triplicates and S.D. values (bars) are presented.
(§2) At the end of the incubation period, the cells were placed on ice, washed with ice cold medium and subjected to mild acid wash (0.2 M Na-acetate buffer, pH 4.5, and 0.5 M NaCl) for 2 minutes, followed by 2 washes in ice cold medium. […] Finally, cells were lysed in 1 N NaOH, and their radioactivity was determined.

EGFR [5] = biological target: T1, EGFR; experiment: Receptor downregulation assay in MCAS cells; type: cell-based; design: endogenous in cells; host or cells: MCAS, MLS, H358, A549; settings: ligand 50 ng/ml
Protocol: as §1, §2

murine AREG = biological target: T2, murine AREG (Mus musculus, UniProt P31955); experiment: ELISA on plates coated with murine AREG; type: binding
T2 construct: purchased Peprotech
T2 sequence (P31955 94-191 limits assumed): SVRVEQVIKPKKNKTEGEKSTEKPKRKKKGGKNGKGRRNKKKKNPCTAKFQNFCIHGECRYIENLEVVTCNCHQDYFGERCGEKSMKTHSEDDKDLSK
Protocol: FIG. 9A—96 well plates were coated with the indicated ligands (400 ng/mL), including a murine HB-EGF fused to thioredoxin. Plates were incubated for 2 hours with 3 different mAbs specific to AREG (as indicated). Thereafter, wells were incubated for two hours with an anti-mouse antibody conjugated to HRP, followed by a 30 minute incubation with ATBS. Signals were determined using an ELISA reader (set at 415 nm). […] Thereafter, wells were incubated for two hours with an anti-mouse antibody conjugated to HRP, followed by a 30-min incubation with ATBS. Signals were determined using an ELISA reader (set at 415 nm). […] 96-well plates were coated with decreasing concentrations (400, 200, 100, 50, 25 and 10 ng/mL) of the indicated 3 ligands, and then incubated for 2 hours with three different mAbs specific to AREG (AR30, AR37 and AR558) at […]. Thereafter, wells were incubated for two hours with an anti-mouse antibody conjugated to HRP, followed by a 20-min incubation with ATBS. Signals were determined using an ELISA reader (set at 420 nm).

[6] = tested on: Cal-27 human head and neck cancer cells; experiment: Cal-27 head and neck tumor xenograft in nude mice; type: in vivo; settings: Cal-27 tumors, 300 μg per injection intraperitoneally twice a week
Protocol: Female nude mice were inoculated subcutaneously with Cal-27 human head and neck cancer cells (2×10^6). Once tumors became palpable (5-7 days) mice were randomized and intraperitoneally injected with saline (Control), or with anti-AR mAbs: AR30, AR37 or AR558 (each at 300 μg per injection). Mice were treated with mAbs twice a week and tumor volume was followed. Shown are averages and SD values from at least 5 mice per group.
To test the ability of anti-AREG antibodies to reduce growth of human tumor cells implanted in immunocompromised mice, Cal 27 tumor cells were used which were inoculated subcutaneously and randomized for treatment after tumors became palpable. […] Furthermore, studies testing pairs of two mAbs illustrate their enhanced anti-tumor activities (data not shown), this can be attributed to the fact that the mAbs bind to distinct antigenic determinants of amphiregulin.

MCF10A cells = experiment: MTS proliferation assay of MCF10A cells; type: cell-based, human; settings: 72 h, absence or presence of AREG, relatively high mAb concentrations
Protocol: Proliferation assays using MTS were performed on MCF10A cells (1,000 cells per well). C ells were plated on the day before and treated for 72 h with the indicated mAbs (1, 5, 10, 20 or 50 ug/mL). Increasing concentrations of the indicated mAbs (either alone or in combination with AREG) were used in medium supplemented with 1% serum and AREG (either at 10 or 100 ng/mL).

EGFR [7] = experiment: AREG-induced EGFR phosphorylation in HeLa cells (immunoblot); type: cell-based, human; settings: AREG 100 ng/ml, mAb 0.1-50 μg/ml, FIG. 10A
Protocol: FIGS. 6A-6F illustrate AR30, an anti-AREG monoclonal antibody, that inhibits auto-phosphorylation of EGFR. FIG. 6A is a photograph of a Coomassie blue staining of an acrylamide gel showing a purified fraction of AREG isolated from bacteria and purified on a NiNTA column. The molecular weight marker lane indicates a 15 kilodalton band; FIG. 6B, cells were seeded in a 24 well plate, washed and incubated with increasing concentrations of the purified TRX-AREG fusion protein (8.5, 85, 850, 8500 ng/ml). […] Following a 10-min long incubation, the cells were lysed and cleared extracts immunoblotted (IB) with an anti-phosphotyrosine antibody (PY-99); FIG. 6C, 96 well plates were coated with the indicated ligands (0.1 μg/ml), and then incubated for 3 hours with three different mAbs specific to AREG. Thereafter, wells were incubated for two hours with an anti-mouse antibody conjugated to HRP, followed by a 30 minutes incubation with ATBS. […] Serum from non-immunized mice was used as a negative control; FIG. 6E, HeLa cells were pre-incubated with (or without) mAb AR30 (20 μg/mL) and increasing concentrations of AREG. Thereafter, whole cell lysates were immunoblotted (IB) using an antibody specific to the phosphorylated form of EGFR (tyrosine 1068) or an antibody to EGFR; and FIG. 6F, HeLa cells were incubated with (or without) AREG (100 ng/mL) in the presence of increasing concentrations of mAb AR30 (5, 10, 20 and 50 μg/mL). Thereafter, cells were lysed and cleared extracts immunoblotted (IB) using the indicated antibodies.
FIG. 10A illustrates that anti-AREG mAbs inhibit ligand-induced activation of EGFR. HeLa cells were incubated with (or without) AREG (100 ng/ml) in the presence of increasing concentrations of mAb AR30, mAb AR 37 or mAb AR558 (0.1, 0.2, 0.5, 0.75, 1.5, 3.5, 6.25, 12.5, 25 and 50 μg/ml). Thereafter, cells were lysed and cleared extracts immunoblotted (IB) using the indicated antibodies, including an antibody specific to the phosphorylated (active) for of EGFR (pEGFR).

human AREG = biological target: T3, human AREG (Homo sapiens, UniProt P15514); experiment: Antigenic determinant comparison of anti-AREG mAbs; type: binding; settings: data not shown
T3 sequence (P15514 101-198 limits assumed): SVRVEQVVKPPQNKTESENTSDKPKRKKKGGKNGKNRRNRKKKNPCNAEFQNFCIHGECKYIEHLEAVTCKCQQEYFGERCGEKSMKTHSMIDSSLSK

AREG: amphiregulin, low-affinity EGF-family ligand of EGFR
ubiquitination of EGFR (EGFR [1]; ligand 100 ng/mL, MCAS, MLS, H358, A549 cells): failed to do so
ubiquitination of EGFR (EGFR [1]; ten-fold higher concentration (1 μg/mL)): comparable levels of receptor ubiquitination as EGF and TGF-alpha
lower binding affinity compared to EGF (EGFR [2]): approximately 100 fold
induction of feedback regulator transcripts (qPCR) ([3]; ligand 10 ng/ml): hardly detectable signals
induction of feedback regulator transcripts (qPCR) ([3]; ligand 100 ng/ml): clear, time dependent transcription of the six tested genes
EGFR downregulation (EGFR [4]): effective downregulation of EGFR was observed only when testing very high concentrations
EGFR downregulation (EGFR [5]): approximately 30%

B1: AR37: anti-AREG monoclonal antibody from AREG knockout mice; heavy chain SEQ ID NO: 62, light chain SEQ ID NO: 93 (antibody)
heavy: EVQLVESGGDLVKPGGSLKLSCAASGFTFSNSGMXWFRLTPDKRLEWVATISSGSTYTFYPDTVKGRFIISRXNAKNTLYLQMSSLKSEDTAIYYCVREIWPVWGAGTTITVSSAKT
light: QAVVTQESALSTSPGETVTLTCRSSTGAVTTSNYANWVQEKPDHLFTGLLGDTDNRPPGVPARFSGSLLGDKAALTITGAQTEDEAIYFCALWYSNHWVFGGGTKLTVL
modifications: not fully specified; AR37 heavy chain IgG complete amino acids coding sequence; (35)..(35) Xaa can be any naturally occurring amino acid; (73)..(73) Xaa can be any naturally occurring amino acid; AR37 light chain (IgG) complete amino acids coding sequence
recognition of murine AREG (ELISA) (murine AREG; ligand coated at 400 ng/mL, FIG. 9A): recognized the murine molecule better than the other two mAbs tested
recognition of murine AREG (ELISA) (murine AREG; ligand coated at 400-10 ng/mL, FIG. 9C): recognised the murine molecule
tumor growth [6]: comparably inhibit tumor growth
inhibition of proliferation (MCF10A cells): Moderate inhibition
AREG-induced phosphorylation of EGFR (EGFR [7]): low concentrations of the antibodies were sufficient for blocking
antigenic determinant targeted (human AREG): engages a different determinant of human AREG
